# B1: Chaperone Ric-8A, Q5E9J8 (parent)
# chain: MEPRAVADALETGEEDVVMEALRAYNRENSQSFTFDDAQQEDRKRLAKLLVSVLEQGLPPSRRVIWLQSIRILSRDRSCLDSFTSRRSLQALACYAGISASQGSVPEPLNMDVVLESLKCLCNLVLSSPVAQALAAEAGLVVRLAERVGLCRQSSFPHDVQFFDLRLLFLLTALRTDVRQQLFQELQGVRLLTRALELTLGMTEGERHPELLPPQETERAMEILKVLFNITFDSIKREVDEEDAALYRHLGTLLRHCVMLAAAGDRTEELHGHAVNLLGNLPVKCLDVLLTLEPHEGSLEFLGVNMDVIRVLLSFMEKRLHQTHRLKESVAPVLSVLTECARMHRPARKFLKAQVLPPLRDVRTRPEVGELLRNKLVRLMTHLDTDVKRVAAEFLFVLCSESVPRFIKYTGYGNAAGLLAARGLMAGGRPEGQYSEDEDTDTDEYKEAKASINPVTGRVEEKPPNPMEGMTEEQKEHEAMKLVNMFDKLSRHRVIQPMGMSPRGQLTSLQDAMCETMEGQLSSDPDSDPD
# B2: Lipase B, P41365 (parent)
# chain: MKLLSLTGVAGVLATCVAATPLVKRLPSGSDPAFSQPKSVLDAGLTCQGASPSSVSKPILLVPGTGTTGPQSFDSNWIPLSTQLGYTPCWISPPPFMLNDTQVNTEYMVNAITALYAGSGNNKLPVLTWSQGGLVAQWGLTFFPSIRSKVDRLMAFAPDYKGTVLAGPLDALAVSAPSVWQQTTGSALTTALRNAGGLTQIVPTTNLYSATDEIVQPQVSNSPLDSSYLFNGKNVQAQAVCGPLFVIDHAGSLTSQFSYVVGRSALRSTTGQARSADYGITDCNPLPANDLTPEQKVAAAALLAPAAAAIVAGPKQNCEPDLMPYARPFAVGKRTCSGIVTP
# B3: Beta-crystallin B2, P02522 (parent)
# chain: MASDHQTQAGKPQPLNPKIIIFEQENFQGHSHELNGPCPNLKETGVEKAGSVLVQAGPWVGYEQANCKGEQFVFEKGEYPRWDSWTSSRRTDSLSSLRPIKVDSQEHKITLYENPNFTGKKMEVIDDDVPSFHAHGYQEKVSSVRVQSGTWVGYQYPGYRGLQYLLEKGDYKDSGDFGAPQPQVQSVRRIRDMQWHQRGAFHPSS
# B4: Decorsin, P17350 (parent)
# chain: APRLPQCQGDDQEKCLCNKDECPPGQCRFPRGDADPYCE
# B5: Ribonuclease HI, P0A7Y4 (parent)
# chain: MLKQVEIFTDGSCLGNPGPGGYGAILRYRGREKTFSAGYTRTTNNRMELMAAIVALEALKEHCEVILSTDSQYVRQGITQWIHNWKKRGWKTADKKPVKNVDLWQRLDAALGQHQIKWEWVKGHAGHPENERCDELARAAAMNPTLEDTGYQVEV
# Variants of: B1
# Settings: Bos taurus; pH 7.5; Thermal; DSF; Tris-HCl; KCl; structure 6N85; whole UniProt chain shown
Variant,Tm [°C],"change of melting temperature, mutant - wild type (higher = more stable) [°C]"
F169R,45.6,-1.2
N123E,46.7,-0.1
A173W,45.6,-1.2
R75M,45.9,-0.9

# Variants of: B2
# Settings: Pseudozyma antarctica; pH 7; Thermal; Differential Scanning Fluorimetry; HEPES 10mM; structure 1TCA; whole UniProt chain shown
Variant,Tm [°C],"change of melting temperature, mutant - wild type (higher = more stable) [°C]"
N194C F329C,56.3,1.5
Q181C L188C,46.1,-8.7
A187C K333C,55.9,1.1

# Same assay, conditions: Pseudozyma antarctica; pH 7; Thermal; CD; Tris-HCl 50 mM; reversible: No; structure 1TCA; whole UniProt chain shown
Variant,Tm [°C],"change of melting temperature, mutant - wild type (higher = more stable) [°C]"
V235I,58.5,0.8
V235I A306E,52.1,-5.6
V246D,55.7,-2

# Variants of: B3
# Settings: Bos taurus; pH 7.2; Thermal; fluorescence; sodium phospahte 20 mM; NaCl; transition: 2; structure 2BB2; whole UniProt chain shown
Variant,Tm [°C],"change of melting temperature, mutant - wild type (higher = more stable) [°C]"
W59C,46.8,-10

# Variants of: B4
# Settings: Macrobdella decora; pH 7; Thermal; CD; Na2HPO4 10 mM; reversible: Yes; structure 1DEC; whole UniProt chain shown
Variant,Tm [°C],"change of melting temperature, mutant - wild type (higher = more stable) [°C]"
P23A,66.5,-7.5
P23A P24A,50,-24
P24A,66.5,-7.5

# Variants of: B5
# Settings: Escherichia coli (strain K12); pH 3; 49.8 °C; Thermal; CD; glycine-HCl 10 mM; reversible: yes; structure 2RN2; whole UniProt chain shown
row,Variant,ddG of mutation (higher = less stable) [kcal/mol]
1,Q113P,0.2
2,K91R D94E,0.6

# Same assay, conditions: Escherichia coli (strain K12); pH 3; Thermal; CD; glycine-HCl 10 mM; reversible: yes; structure 2RN2; whole UniProt chain shown
Variant,Tm [°C],"change of melting temperature, mutant - wild type (higher = more stable) [°C]",unfolding enthalpy (van 't Hoff) [kcal/mol]
Q113P,49.2,-0.6,100
K91R D94E,47.8,-2,93.8
K91R,49.8,0.5,119
D94E,49.8,-1.2,95.9

# Same assay, conditions: Escherichia coli (strain K12); pH 5.5; 52 °C; Thermal; CD; Sodium acetate 20 mM; reversible: yes; structure 2RN2; whole UniProt chain shown
row,Variant,ddG of mutation (higher = less stable) [kcal/mol]
1,Q113P,0.6

# Same assay, conditions: Escherichia coli (strain K12); pH 5.5; Thermal; CD; Sodium acetate 20 mM; reversible: yes; structure 2RN2; whole UniProt chain shown
Variant,Tm [°C],"change of melting temperature, mutant - wild type (higher = more stable) [°C]",unfolding enthalpy (van 't Hoff) [kcal/mol]
Q113P,49.9,-2.1,81
K91R,52,0.1,96.2
D94E,52,-1.6,92.9

# Same assay, conditions: Escherichia coli (strain K12); pH 3; Thermal; CD; Gly-HCl buffer 10 mM; NaCl 0.1 M; reversible: yes; structure 2RN2; whole UniProt chain shown
Variant,"change of melting temperature, mutant - wild type (higher = more stable) [°C]",ddG of mutation (higher = less stable) [kcal/mol]
V74I,2.4,-0.7
V74A,-7.6,2.2
V74L,3.7,-1.1

# Same assay, conditions: Escherichia coli (strain K12); pH 5.5; Thermal; CD; sodium acetate 20 mM; NaCl 0.1 M; reversible: yes; structure 2RN2; whole UniProt chain shown
Variant,"change of melting temperature, mutant - wild type (higher = more stable) [°C]",ddG of mutation (higher = less stable) [kcal/mol]
V74I,2.1,-0.6
V74A,-12.7,3.4
V74L,3.3,-0.9

# Same assay, conditions: Escherichia coli (strain K12); pH 5.5; Thermal; CD; glycine-HCl 10 mM; reversible: yes; structure 2RN2; whole UniProt chain shown
Variant,Tm [°C],"change of melting temperature, mutant - wild type (higher = more stable) [°C]",unfolding enthalpy (van 't Hoff) [kcal/mol]
K91R D94E,50.2,-1.8,87.5

# Same assay, conditions: Escherichia coli (strain K12); pH 3; 50.1 °C; Thermal; CD; glycine-HCl 10 mM; NaCl 0.1 M; reversible: yes; structure 2RN2; whole UniProt chain shown
row,Variant,ddG of mutation (higher = less stable) [kcal/mol]
1,Q76L,-0.24
2,H62P T40A K122R,-0.52
3,K117R,0.06
4,E119V R41C,-0.09
5,E135K,1.1
6,E119V K60R,0.06

# Same assay, conditions: Escherichia coli (strain K12); pH 3; Thermal; CD; glycine-HCl 10 mM; NaCl 0.1 M; reversible: yes; structure 2RN2; whole UniProt chain shown
Variant,Tm [°C],"change of melting temperature, mutant - wild type (higher = more stable) [°C]",unfolding enthalpy (van 't Hoff) [kcal/mol]
Q76L,50.9,0.8,110
H62P T40A K122R,51.8,1.7,109
K117R,49.9,-0.2,97.1
E119V R41C,50.4,0.3,101
E135K,46.4,-3.7,99
E119V K60R,49.9,-0.2,109

# Same assay, conditions: Escherichia coli (strain K12); pH 5.5; Thermal; CD; Sodium acetate 20 mM; NaCl 0.1 M; reversible: yes; structure 2RN2; whole UniProt chain shown
Variant,Tm [°C],"change of melting temperature, mutant - wild type (higher = more stable) [°C]",unfolding enthalpy (van 't Hoff) [kcal/mol]
Q76L,53.8,1.1,81.2
H62P T40A K122R,55.8,3.1,96.9
E119V R41C,56.9,4.2,107
E135K,51.9,-0.8,89.9
E119V K60R,55,2.3,98.6

# Same assay, conditions: Escherichia coli (strain K12); pH 5.5; 25 °C; Urea; CD; sodium acetate 20 mM; KCl 50 mM; structure 2RN2; whole UniProt chain shown
Variant,ddG of mutation (higher = less stable) [kcal/mol],denaturant m value [kcal/mol/M],unfolding free energy [kcal/mol]
I53L,1.4,2.3,8.3
I53D,4.1,2,5.6
I53F,3.9,2,5.8

# Same assay, conditions: Escherichia coli (strain K12); pH 5.5; 52.7 °C; Thermal; CD; Sodium acetate 20 mM; NaCl 0.1 M; reversible: yes; structure 2RN2; whole UniProt chain shown
row,Variant,ddG of mutation (higher = less stable) [kcal/mol]
1,K117R,-0.03
2,E135K,0.22
3,E119V K60R,-0.63

# Same assay, conditions: Escherichia coli (strain K12); pH 5.5; 49.8 °C; Thermal; CD; Sodium acetate 20 mM; reversible: yes; structure 2RN2; whole UniProt chain shown
row,Variant,ddG of mutation (higher = less stable) [kcal/mol]
1,K91R,0
2,D94E,0.4
